What was measured:
shed MUC1 = biological target: T1, shed MUC1 (Homo sapiens, UniProt P15941); test: enzyme immunoassay (EIA) for shed MUC1 in plasma
T1 construct: from tissue; host or cells: human plasma, diluted 1:2 and 1:10
Procedure: To that end, the ability of TAB-004 to detect levels of shed MUC1 in the plasma of patients was compared to the performances of these antibodies in plasma samples. An enzyme immunoassay (EIA) has been optimized using the TAB-004 antibody to capture and detect levels of shed MUC1 present in circulation. Briefly, a 96-well ELISA plate was coated with 100 μl of TAB-004 antibody at 50 μg/mL in PBS and incubated overnight at 4° C. Following incubation, excess TAB-004 capture antibody was removed from the plate. The plate was blocked with 200 μl of 1% dry milk in PBS to avoid non-specific binding and incubated for 1 hour at 4° C. The plates were washed extensively (3 times) with 250 μl PBS containing 0.05% (v/v) TWEEN®-20 using an ELISA plate washer. A MUC1 standard using a 25-mer polypeptide preparation from MUC1 TR was prepared ranging from 0-2000 U/ml. The test plasma was diluted 1:2, and 1:10 in 0.1% milk in PBS, and 100 μl was added to the appropriate wells in triplicate, and the plates were incubated for 2 hours at 37° C.
Plates were then washed and 100 μl of a polyclonal rabbit anti-MUC1 antibody (Genway) were added at 1:300,000 dilution in 0.1% milk in PBS to each well, and the plate was incubated for 1 hour at 37° C. The polyclonal antibody was washed from the wells and horse radish peroxidase-labeled goat anti-rabbit IgG was added at a 1:1,000 dilution in 0.1% milk in PBS and incubated at 37° C. for 1 hour. After washing the plates, 100 μL of a solution consisting of peroxidase substrate (TMB) was added to the wells, and the plates incubated at room temperature for 30 minutes in the dark. The reaction was stopped by the addition of 25 μl of 4.0 N sulfuric acid, and the optical density read at a wavelength of 450 nm using a SPECTRA-MAX 250 spectrophotometer. Standard curves were generated with regression analyses to determine concentrations of the unknown samples.
Arbitrary units (U)/ml were chosen based on an initial reference standard of MUC1. A linear range was determined to be 50-800 units/ml of MUC1 antigen. […]

[1] = test system: orthotopic tumors (PyVMT, PyVMT.MUC1, HCC-70, and AU565); test: IVIS imaging of TAB-004-ICG in Nu-J nude mice with orthotopic tumors; type: in vivo, mouse; conditions: ICG-conjugated
Procedure: FIGS. 18A-18D are a series of fluorescent images showing specific homimg of the ICG-tagged TAB-004 antibody to tumor sites in mice bearing PyV MT tumors (MUC1 null negative control; FIG. 18A), PyV MT.MUC1 tumors (MMT, MUC1+ positive control; FIG. 18B), HCC70 cell triple negative breast cancer (TNBC) tumors (MUC1+; FIG. 18C), and AU565 TNBC cell tumors (MUC1+; […]) imaged 4 hours post-injection with antibody. Imaging was repeated as tumors progressed (indicated as days post tumor challenge). […] Each of FIGS. 18A-18D is accompanied by a graph showing the growth of the tumor from 7-21 days (FIGS. 18A and 18B) or from 7 to 54 days (FIGS. 18C and 18D).
To test if TAB-004 can specifically reach TNBC tumors in vivo in mice, orthotopic tumors (PyVMT, PyVMT.MUC1, HCC-70, and AU565) were produced in the mammary fat pad of mice. Nu-J nude mice (8-week old) were injected with 10×10^6 cells in the lower right inquinal area of the mammary fat pad. When tumors were palpable, mice were injected retroorbitally with 12.5 μgs of TAB-004-directly conjugated to Indocyanine green (ICG) and imaged 4 hours post antibody injection. […] A negative breast cancer cell line that is null for human MUC1 was used as control to test specificity (PyVMT; see FIG. 18A).

[2] = test system: human breast cancer cell lines; test: flow cytometry of breast cancer cell lines with TAB-004 conjugated to Cy7; type: cell-based; conditions: Cy7 conjugate
Procedure: FIG. 13 is a series of plots of flow cytometric analyses of TNBC cell lines stained with a Cy7-conjugated TAB-004 monoclonal antibody (1 μg/sample). Compared to isotype control (solid trace in each panel; red lines in color photo), all cell lines expressed high to moderate levels of tMUC. MDA-MB-231 is mesenchymal in phenotype and loses MUC1 in vitro while Hs578T is a mesenchymal stem-like carcinosarcoma that has low expression of tMUC (depicted with dashed lines in each panel).
A 45-panel human breast cancer cell lines were tested for tMUC expression with TAB-004 conjugated to Cy7 and flow cytometry. […] In particular, apart from those with a mesenchymal phenotype, all cell lines expressed high levels of tMUC.

[3] = biological target: tumor-specific form of MUC1 (tMUC) (Homo sapiens, UniProt P15941); conditions: cited from earlier work
Sequence of tumor-specific form of MUC1 (tMUC) (P15941 24-1255): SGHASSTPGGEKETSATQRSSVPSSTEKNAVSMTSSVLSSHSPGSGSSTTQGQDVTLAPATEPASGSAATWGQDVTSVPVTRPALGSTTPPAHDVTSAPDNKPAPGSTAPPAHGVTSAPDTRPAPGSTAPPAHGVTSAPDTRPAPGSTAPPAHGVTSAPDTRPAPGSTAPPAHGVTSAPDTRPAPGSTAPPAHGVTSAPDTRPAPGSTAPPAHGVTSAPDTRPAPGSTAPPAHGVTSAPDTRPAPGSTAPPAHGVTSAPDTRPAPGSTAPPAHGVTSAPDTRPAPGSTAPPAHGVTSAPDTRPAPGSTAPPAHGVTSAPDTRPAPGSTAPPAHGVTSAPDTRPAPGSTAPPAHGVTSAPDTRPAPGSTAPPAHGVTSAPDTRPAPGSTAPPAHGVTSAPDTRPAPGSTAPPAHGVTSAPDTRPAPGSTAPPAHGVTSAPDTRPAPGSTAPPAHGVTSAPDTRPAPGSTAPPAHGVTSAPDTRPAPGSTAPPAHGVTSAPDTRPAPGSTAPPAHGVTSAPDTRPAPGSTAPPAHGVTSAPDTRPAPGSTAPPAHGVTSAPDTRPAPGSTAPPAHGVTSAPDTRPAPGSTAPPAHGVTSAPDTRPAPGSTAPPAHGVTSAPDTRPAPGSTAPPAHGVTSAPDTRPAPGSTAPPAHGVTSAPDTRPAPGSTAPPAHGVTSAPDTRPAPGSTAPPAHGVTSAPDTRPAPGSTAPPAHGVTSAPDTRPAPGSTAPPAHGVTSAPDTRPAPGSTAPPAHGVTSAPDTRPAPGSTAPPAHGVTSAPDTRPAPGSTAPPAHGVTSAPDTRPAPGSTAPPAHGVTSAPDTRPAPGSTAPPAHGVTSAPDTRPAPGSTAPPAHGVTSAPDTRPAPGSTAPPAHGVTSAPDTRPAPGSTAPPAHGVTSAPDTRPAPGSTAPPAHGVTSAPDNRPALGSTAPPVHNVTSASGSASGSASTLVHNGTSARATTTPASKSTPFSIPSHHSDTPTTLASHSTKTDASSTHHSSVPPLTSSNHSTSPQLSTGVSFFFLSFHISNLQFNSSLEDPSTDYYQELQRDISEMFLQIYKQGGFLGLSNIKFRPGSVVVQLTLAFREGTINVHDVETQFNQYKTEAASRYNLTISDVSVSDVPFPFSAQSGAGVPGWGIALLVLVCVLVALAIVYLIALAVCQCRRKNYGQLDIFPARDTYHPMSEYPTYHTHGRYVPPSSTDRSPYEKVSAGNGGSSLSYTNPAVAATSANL

T1 sequence (P15941 24-1097 limits assumed): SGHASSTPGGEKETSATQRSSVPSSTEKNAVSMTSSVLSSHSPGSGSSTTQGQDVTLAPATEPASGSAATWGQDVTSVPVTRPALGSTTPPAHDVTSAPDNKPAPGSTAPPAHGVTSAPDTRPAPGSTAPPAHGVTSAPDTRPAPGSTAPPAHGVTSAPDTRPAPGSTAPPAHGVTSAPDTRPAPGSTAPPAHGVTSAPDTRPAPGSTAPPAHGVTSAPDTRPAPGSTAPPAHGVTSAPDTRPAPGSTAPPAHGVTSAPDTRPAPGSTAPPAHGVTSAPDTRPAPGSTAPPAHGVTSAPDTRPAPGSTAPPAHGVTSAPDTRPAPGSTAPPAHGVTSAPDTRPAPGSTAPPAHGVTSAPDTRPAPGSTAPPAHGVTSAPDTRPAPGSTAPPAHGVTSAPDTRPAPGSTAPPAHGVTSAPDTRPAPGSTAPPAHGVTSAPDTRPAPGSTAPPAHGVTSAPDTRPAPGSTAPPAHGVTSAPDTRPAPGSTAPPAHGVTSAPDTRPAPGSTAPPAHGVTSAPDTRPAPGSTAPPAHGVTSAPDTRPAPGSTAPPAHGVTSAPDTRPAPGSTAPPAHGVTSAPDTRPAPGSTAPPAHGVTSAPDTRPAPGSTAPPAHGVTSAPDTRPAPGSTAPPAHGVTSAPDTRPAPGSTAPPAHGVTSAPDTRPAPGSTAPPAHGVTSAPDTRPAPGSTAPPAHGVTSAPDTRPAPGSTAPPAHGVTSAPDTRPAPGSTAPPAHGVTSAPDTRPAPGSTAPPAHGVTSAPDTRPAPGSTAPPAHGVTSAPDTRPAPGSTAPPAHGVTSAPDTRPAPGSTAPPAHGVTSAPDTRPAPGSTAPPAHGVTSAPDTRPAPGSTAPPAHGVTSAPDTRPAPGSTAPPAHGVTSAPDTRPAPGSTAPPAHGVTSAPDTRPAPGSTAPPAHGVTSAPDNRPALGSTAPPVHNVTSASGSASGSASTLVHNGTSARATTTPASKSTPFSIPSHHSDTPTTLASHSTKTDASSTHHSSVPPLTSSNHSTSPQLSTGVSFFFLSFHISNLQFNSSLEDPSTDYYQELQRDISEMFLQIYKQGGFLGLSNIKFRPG

B1: TAB-004: mAb of the IgG isotype produced by hybridoma ATCC PTA-11550; binds tumor-specific epitope of human MUC1 (antibody, V domains shown)
VH: EVQLQQSGGERATPGASVKMSCKTSGYTFTNYWMHWVKQRPGQGLEWIGYINPSSGYTQYNQKFKDKATLTADKSSSTAYIQLSSLTSEDSAVYYCSTYYGDYLFPYWGQGTLVTVSA
VL: DVLMTQTPLSLPVSLGDQASISCRSSQDIVYGNGNTYLEWYLQKPGQSPKLLIYKVSNRFSGVPDRFSGSGSGTDFTLKISRVEAEDLGVYYCFQGSHVPYTFGGGTKLEIKR
Shed MUC1; 36 breast cancer plasma samples for CA15-3
  false negatives / positivity of cancer patient plasma: All cancer patient plasma was positive
Shed MUC1; n=5 per stage
  stage 2 and stage 3 pancreatic cancer patients above the normal range: all stage 2 and stage 3 patients
Shed MUC1; n=12 normal, cutoff <40 U/ml TAB-004, <31 U/ml CA15-3
  false positive results in normal patients: no false positives
[1]; HCC70 and AU565, days post tumor challenge
  earliest specific localization to tumor sites, human cell lines: 21 days
[1]; days post tumor challenge
  earliest specific localization to tumor sites, PyVMT.MUC1 tumors: 11 days
[2]; 45-panel
  staining of breast cancer cell line subtypes: stained strongly
[2]
  staining of MDA-MB-231 cell line: stained weakly
[3]
  binding affinity: 3 ng/mL
  binding to unrelated antigens: does not bind unrelated antigens
[3]; read-out: binding affinity
  Kd: 0.02 nM

Source: patent US12605469B2, “Tumor specific antibody conjugates and uses therefor” (The University of North Carolina at Charlotte, priority 2019, dated 2026)
